In paper PMC4660977 (Molecular pharmaceutics, 2015):

How the values were obtained:
[1] = target: intrinsic factor (IF) (human) (UniProt P27352); test: radioligand binding
[2] = target: glucagon-like peptide-1 receptor (GLP-1R) (UniProt P43220)
[3] = target: GLP-1R (Homo sapiens, UniProt P43220); test: GLP-1R agonism, AKAR3 FRET reporter assay in HEK-GLP-1R cells; type: cell-based; conditions: undigested
[4] = target: T1, meprin β (Homo sapiens, UniProt Q16820); test: Meprin β digestion, remaining function at GLP-1R; type: in vitro ADME; conditions: meprin β concentrations greater than 3 µg/mL; 30 min, 100 nM; AKAR3 FRET
T1 sequence (Q16820 62-701): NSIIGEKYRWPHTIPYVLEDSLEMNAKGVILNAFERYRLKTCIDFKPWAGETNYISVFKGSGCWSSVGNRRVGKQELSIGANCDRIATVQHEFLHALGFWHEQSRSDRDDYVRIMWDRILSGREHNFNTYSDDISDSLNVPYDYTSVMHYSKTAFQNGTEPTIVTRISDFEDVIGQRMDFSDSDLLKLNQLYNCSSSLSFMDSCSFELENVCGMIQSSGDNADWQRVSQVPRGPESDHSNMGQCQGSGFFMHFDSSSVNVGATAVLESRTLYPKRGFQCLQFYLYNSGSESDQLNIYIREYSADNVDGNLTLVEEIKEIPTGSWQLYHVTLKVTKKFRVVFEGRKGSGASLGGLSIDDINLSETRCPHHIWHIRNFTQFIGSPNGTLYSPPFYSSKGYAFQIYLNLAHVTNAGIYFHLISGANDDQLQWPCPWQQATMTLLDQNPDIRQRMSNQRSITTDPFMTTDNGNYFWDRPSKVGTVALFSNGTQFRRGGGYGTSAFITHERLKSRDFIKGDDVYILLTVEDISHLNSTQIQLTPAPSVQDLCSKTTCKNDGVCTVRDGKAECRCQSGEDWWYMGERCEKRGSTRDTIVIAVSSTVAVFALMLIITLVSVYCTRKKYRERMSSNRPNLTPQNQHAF

glucagon-like peptide-1 receptor (GLP-1R), sequence (P43220 24-463): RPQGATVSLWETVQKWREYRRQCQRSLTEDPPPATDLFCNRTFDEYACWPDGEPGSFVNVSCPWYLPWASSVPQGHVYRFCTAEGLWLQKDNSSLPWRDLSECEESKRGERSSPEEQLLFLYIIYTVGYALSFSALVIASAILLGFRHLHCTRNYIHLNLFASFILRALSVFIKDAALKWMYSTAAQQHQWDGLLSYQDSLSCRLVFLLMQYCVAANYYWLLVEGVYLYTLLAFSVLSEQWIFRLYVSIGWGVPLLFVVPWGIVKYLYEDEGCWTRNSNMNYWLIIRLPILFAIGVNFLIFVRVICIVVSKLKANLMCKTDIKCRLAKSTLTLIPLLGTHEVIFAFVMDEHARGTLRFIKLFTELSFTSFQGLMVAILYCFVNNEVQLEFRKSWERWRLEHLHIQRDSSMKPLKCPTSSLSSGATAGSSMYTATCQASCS
GLP-1R, sequence (P43220 24-463): as above
intrinsic factor (IF) (human), sequence (P27352 19-417): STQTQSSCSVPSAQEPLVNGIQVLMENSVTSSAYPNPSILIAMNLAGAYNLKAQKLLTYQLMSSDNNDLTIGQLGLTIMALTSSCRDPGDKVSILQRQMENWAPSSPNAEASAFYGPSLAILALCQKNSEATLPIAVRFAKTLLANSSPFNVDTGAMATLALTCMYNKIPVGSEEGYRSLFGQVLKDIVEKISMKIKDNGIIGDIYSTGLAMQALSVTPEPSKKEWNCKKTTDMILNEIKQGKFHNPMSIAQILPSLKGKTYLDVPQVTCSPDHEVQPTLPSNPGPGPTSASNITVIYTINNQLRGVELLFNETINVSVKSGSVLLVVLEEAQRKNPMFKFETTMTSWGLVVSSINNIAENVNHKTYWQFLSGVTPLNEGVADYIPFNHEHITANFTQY

B12-Ex-4 conjugate (4) (from UniProt P26349 48-87) (peptide)
IF binding (constant not named) [1]: 6.8 nM

IF-B12-Ex-4 complex (IF-4) (from UniProt P27352 19-417)
% change in FRET at 100 nM (AKAR3 in HEK-GLP-1R cells) [2]: -12%

(AzidoK12)-Ex-4 [Compound 1]
% change in FRET at 100 nM [3]: −12 ± 0.01%
function after meprin β digestion [4]: No function
